Km, kcat and kcat/Km data for three proteins are collected here from PMC11808261.

Substrate in this series: N[C@@H](CC(=O)O)C(=O)O
Briefly: purified protein. The conditions noted are these: 37 °C, 5 min, PBS pH 7.0 (pH of the activity assay), pyruvoyl-dependent.

Setting [1] is: variant N3, I126* = C-terminal deletion from residue 126.
The mark [2] stands for this setting: variant Y1, I126* = C-terminal deletion from residue 126.

B1: BsADC (L-aspartate-alpha-decarboxylase, panD-wt) (Bacillus subtilis subsp. subtilis str. 168; A99E/DEL126-127/I88M/K113R/K63N/S7N) (protein)
chain 1: MYRTMMNGKLHRATVTEANLNYVG
chain 2: SITIDEDLIDAVGMLPNEKVQIVNNNNGARLETYIIPGNRGSGVICLNGAAARLVQEGDKVIIMSYKMMSDQEAESHEPKVAVLNDQNRIEQMLGNEPART
As to B1, under setting [1], the Km turned out to be 3.22 ± 0.15 mM, the kcat turned out to be 8.29 s⁻¹ and the kcat/Km worked out at 2570 M⁻¹ s⁻¹.

B2: BsADC (L-aspartate-alpha-decarboxylase, panD-wt) (Bacillus subtilis subsp. subtilis str. 168; A99E/DEL126-127/I88M/K113R/K63N/S7Y) (protein)
chain 1: MYRTMMYGKLHRATVTEANLNYVG
chain 2: B1 chain 2
Turning to B2, under setting [2], the Km stood at 3.82 ± 0.29 mM, the kcat was 7.26 s⁻¹ and the kcat/Km worked out at 1900 M⁻¹ s⁻¹.

B3: BsADC (L-aspartate-alpha-decarboxylase, panD-wt) (Bacillus subtilis subsp. subtilis str. 168) (protein)
chain 1: MYRTMMSGKLHRATVTEANLNYVG
chain 2: SITIDEDLIDAVGMLPNEKVQIVNNNNGARLETYIIPGKRGSGVICLNGAAARLVQEGDKVIIISYKMMSDQEAASHEPKVAVLNDQNKIEQMLGNEPARTIL
In the case of B3, the Km was 3.69 ± 0.33 mM, the kcat turned out to be 4.25 s⁻¹ and the catalytic efficiency (kcat/Km) was determined as 1150 M⁻¹ s⁻¹.

The term Km denotes the substrate concentration at which the rate is half of its maximum. What is called kcat is the maximal rate divided by the concentration of active sites. As a reminder, the kcat/Km is the second-order rate constant that governs catalysis at low substrate concentration.
